According to patent US5597569A (priority 1994, dated 1997):
Like-named read-outs stand apart in the source and are kept apart here.

Legend:
[1] = system: protein synthesis in rabbit reticulocyte lysate with wheat germ ribosomes; conditions: cited from earlier work
mice [2] = conditions: intraperitoneal, literature; cited from earlier work
[3] = system: H3396 cell membranes (BR96 antigen); assay type: binding, human; conditions: FIG. 10; ELISA, 10 μg/ml H3396 membranes
mice [4] = conditions: for % Survival / LD50: mice; for % Survival: >14 days; for LD50: single dose
[5] = system: protein synthesis in rabbit reticulocyte lysate
liver = conditions: for liver lesions: histochemical analysis

B1: bryodin 1: type I ribosome-inactivating protein from the root of Bryonia dioica; 29 kDa band identical to the bryodin described by Stirpe (protein)
chain: DVSFRLSGATTTSYGVFIKNLREALPYERKVYNIPLLRSSISGSGRYTLLHLTNYADETISVAVDVTNVYIMGYLAGDVSYFFNEASATEAAKFVFKDAKKKVTLPYSGNYERLQTAAGKIRENIPLGLPALDSAITTLYYYTASSAASALLVLIQSTAESARYKFIEQQIGKRVDKTFLPSLATISLENNWSALSKQIQIASTNNGQFESPVVLIDGNNQRVSITNASARVVTSNIALLLNRNNIA
ID50, inhibition of protein synthesis [1]: 3.6 ng/mL
LD50 (mice [2]): 14.5 mg/kg
binding to H3396 membranes [3]: no detectable binding
% Survival (mice [4]; i.p., 10 mg/kg): 100%
% Survival (mice [4]; i.p., 12 mg/kg): 100%
% Survival (mice [4]; i.p., 14 mg/kg): 100%
% Survival (mice [4]; i.p., 16 mg/kg): 100%
% Survival (mice [4]; i.v., 12 mg/kg): 100%
% Survival (mice [4]; i.v., 16 mg/kg): 100%
% Survival (mice [4]; i.v., 18 mg/kg): 100%
% Survival (mice [4]; i.v., 20 mg/kg): 100%

B2: bryodin 2: novel type I ribosome-inactivating protein of about 27,000 daltons isolated from the roots of Bryonia dioica (SEQ ID NO: 15) (protein)
chain: MRSIGFYSVLALYVGAHVTEDVDINFSLIGATGATYKTFIRNLRTKLTVGTPRVYDIPVLRNAAAGLARFQLVTLTNYNGESVTVALDVVNVYVVAYRAGNTAYFLADASTEANNVLFAGINHVRLPYGGNYDGLETAAGRISRENIELGFSEISSAIGNMFRHNPGTSVPRAFIVIIQTVSEAARFKYIEQRVSENVGTKFKPDPAFLSLQNAWGSLSEQIQIAQTRGGEFARPVELRTVSNTPTFVTNVNSPVVKGIALLLYFRVNVGTDNVFAMSLSTY
EC50 [5]: 0.017 nM
liver protein in blood chemistry screen (liver; blood chemistry, data not shown): increased liver protein
liver lesions (liver): showed liver lesions
liver lesions (liver; listed as BD2): presence of liver lesions
SGOT (liver; injected mice): elevated
SGPT (liver; injected mice): elevated
cause of death at lethal dose (liver; necropsy): liver toxicity was the cause of death
binding to H3396 membranes [3]: no detectable binding
toxicity to mice relative to bryodin 1 (mice [4]; i.p. and i.v.): slightly more toxic to mice than bryodin 1
% Survival (mice [4]; i.p., 7 mg/kg): 100%
% Survival (mice [4]; i.p., 8 mg/kg): 50%
% Survival (mice [4]; i.p., 10 mg/kg): 0%
% Survival (mice [4]; i.p., 12 mg/kg): 0%
% Survival (mice [4]; i.v., 5 mg/kg): 100%
% Survival (mice [4]; i.v., 6 mg/kg): 100%
% Survival (mice [4]; i.v., 7 mg/kg): 100%
% Survival (mice [4]; i.v., 8 mg/kg): 75%
% Survival (mice [4]; i.v., 10 mg/kg): 75%
% Survival (mice [4]; i.v., 12 mg/kg): 0%
% Survival (mice [4]; i.v., 14 mg/kg): 0%
LD50 (mice [4]; intraperitoneal): 8 mg/kg
LD50 (mice [4]; intraperitoneal, listed as BD2): about 8 mg/kg
LD50 (mice [4]; intravenous): greater than 10 mg/kg

B3: gelonin: a type 1 ribosome-inhibiting protein (protein)
chain: GLDTVSFSTKGATYITYVNFLNELRVKLKPEGNSHGIPLLRKKCDDPGKCFVLVALSNDNGQLAEIAIDVTSVYVVGYQVRNRSYFFKDAPDAAYEGLFKNTIKTRLHFGGSYPSLEGEKAYRETTDLGIEPLRIGIKKLDENAIDNYKPTEIASSLLVVIQMVSEAARFTFIENQIRNNFQQRIRPANNTISLENKWGKLSFQIRTSGANGMFSEAVELERANGKKYYVTAVDQVKPKIALLKFVDKDPK
EC50 [5]: 0.049 nM
